Test results taken from patent publication US20250388683A1.

Molecular target: canine IL-31 (canine)

Q: With “Cytopoint® (Lokivetmab), a canine anti-IL31 (Cas number: 1533403-95-0) (antibody)” as the substance, how does the IC50 (read off the curve); STAT3-SEAP reporter, canine IL-31 stimulation read?
A: Its IC50 (read off the curve); STAT3-SEAP reporter, canine IL-31 stimulation is 1 to 10 nM.

Q: Which IC50 (read off the curve); STAT3-SEAP reporter, canine IL-31 stimulation does the source give for “Tirnovetmab, a canine anti-IL31 (Cas number: 2364504-80-1) (antibody)” here?
A: Its IC50 (read off the curve); STAT3-SEAP reporter, canine IL-31 stimulation is 3 nM.
